The results in this text go back to US20220332804A1 (CSL INNOVATION, published 2022).

Usually Kd stands for a measure of binding affinity in units of concentration. A lower Kd goes with tighter binding.

Common to all, as to experiment: SPR, antibody captured, C2 as analyte;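 further: biacore SPR at 37 °C, anti-C2 mAbs captured via goat anti-human IgG on CM5 chips, double-referenced sensorgrams fit to a 1:1 kinetic or steady-state model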
The target in one assay is T1, human C2 D419A (human, UniProt P06681 21-752).
T1 sequence: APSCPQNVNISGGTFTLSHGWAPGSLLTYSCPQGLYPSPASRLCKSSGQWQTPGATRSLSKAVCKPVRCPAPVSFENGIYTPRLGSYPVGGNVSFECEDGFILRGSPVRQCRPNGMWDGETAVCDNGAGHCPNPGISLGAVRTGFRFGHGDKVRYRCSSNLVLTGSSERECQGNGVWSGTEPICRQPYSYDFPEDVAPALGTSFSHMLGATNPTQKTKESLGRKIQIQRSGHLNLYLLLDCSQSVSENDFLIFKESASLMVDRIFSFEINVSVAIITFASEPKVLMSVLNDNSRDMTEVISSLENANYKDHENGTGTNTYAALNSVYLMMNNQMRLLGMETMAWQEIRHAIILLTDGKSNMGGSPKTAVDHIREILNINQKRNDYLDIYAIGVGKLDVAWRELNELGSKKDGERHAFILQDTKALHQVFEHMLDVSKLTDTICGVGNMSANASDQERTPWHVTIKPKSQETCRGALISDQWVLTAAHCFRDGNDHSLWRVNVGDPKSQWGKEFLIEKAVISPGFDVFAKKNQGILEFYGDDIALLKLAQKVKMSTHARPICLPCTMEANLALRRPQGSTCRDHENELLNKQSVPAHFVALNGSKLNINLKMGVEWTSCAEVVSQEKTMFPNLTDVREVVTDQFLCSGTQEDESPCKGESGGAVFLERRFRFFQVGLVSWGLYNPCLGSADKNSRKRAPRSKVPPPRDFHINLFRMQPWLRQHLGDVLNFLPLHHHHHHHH

The next assay has as its target T2, human C2 T317A (human, UniProt P06681 21-752).
T2 sequence: T1 sequence with T297A, A399D

Another assay concerns the target T3, human C2 V722A (human, UniProt P06681 21-752).
T3 sequence: T1 sequence with A399D, V702A

The target of a further assay is T4, human C2 F270A (human, UniProt P06681 21-752).
T4 sequence: T1 sequence with F250A, A399D

Changes are numbered by the printed parent chain.

B1: RF16-226 (antibody, human IgG4 S228P, lambda)
heavy: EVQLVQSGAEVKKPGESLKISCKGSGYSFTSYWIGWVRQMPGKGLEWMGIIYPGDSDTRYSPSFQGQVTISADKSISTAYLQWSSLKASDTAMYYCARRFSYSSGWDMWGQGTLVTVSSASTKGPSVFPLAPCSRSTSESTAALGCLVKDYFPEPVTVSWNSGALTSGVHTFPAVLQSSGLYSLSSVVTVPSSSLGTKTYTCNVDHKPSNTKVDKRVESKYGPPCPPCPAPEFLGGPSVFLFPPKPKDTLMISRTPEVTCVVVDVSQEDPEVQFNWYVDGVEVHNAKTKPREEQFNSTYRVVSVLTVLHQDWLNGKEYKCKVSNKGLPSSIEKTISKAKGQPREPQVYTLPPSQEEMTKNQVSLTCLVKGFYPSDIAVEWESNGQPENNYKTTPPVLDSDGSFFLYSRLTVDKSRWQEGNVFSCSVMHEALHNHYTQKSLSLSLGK
light: SYELTQPPSVSVSPGQTARITCSGDALTSKYVAWYQQKSGLAPLLVIYEDTRRPSGIPAKFSGSSSGSVATLTISGAHGDDEADYYCYSTDASGHQRVFGGGTKLTVLSQPKAAPSVTLFPPSSEELQANKATLVCLISDFYPGAVTVAWKADGSPVKAGVETTKPSKQSNNKYAASSYLSLTPEQWKSHRSYSCQVTHEGSTVEKTVAPTECS
notes: pH-dependent anti-C2 antibody from a phage display library; also called WT
For the molecule B1, the Kd amounted to 17.6 nM with human C2 D419A, 9 nM in the assay with human C2 T317A, 95.2 nM with human C2 V722A and 96.8 nM with human C2 F270A.
